From paper PMC8717551 (The Journal of Biological Chemistry, 2021) come the findings set out here.

Broadly, the stoichiometry N is a count of units in the complex or per binding partner.

Series [1] concerns the molecule itself. Kind of series: crystal structure.
The target of series [2] is T1, Sa2YefM in heterohexamer;Sa2YoeB in heterohexamer (Staphylococcus aureus …, UniProt Q2FVF7;Q2FVF8 1-85;1-88, |).
T1 sequence 1: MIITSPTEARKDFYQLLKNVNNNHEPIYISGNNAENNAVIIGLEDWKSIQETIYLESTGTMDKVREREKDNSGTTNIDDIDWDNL
T1 sequence 2: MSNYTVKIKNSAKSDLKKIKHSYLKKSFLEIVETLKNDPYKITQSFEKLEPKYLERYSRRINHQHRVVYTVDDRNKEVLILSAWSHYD
Kind of series: ITC. (ITC needs no label: the signal is the heat of the interaction.)

B1: Sa2YefM antitoxin (natural protein)
chain: T1 sequence 1
Regarding B1, the “stoichiometry N” value in series [1] was 2.

B2: promoter mutant2 (flanking mutated) (dsDNA)
DNA 1: TTGTTGTACAAAAGTTTGTACAATAT
DNA 2: ATATTGTACAAACTTTTGTACAACAA
For the molecule B2, the binding result in series [2] was “no binding”.

B3: promoter mutant1 (core GTAC mutated) (dsDNA)
DNA 1: TTGACTGCATCAAGTGCTGCAGCTAT
DNA 2: ATAGCTGCAGCACTTGATGCAGTCAA
For the molecule B3, in series [2], the binding result is listed as “no binding”.
